Measured values from patent US20170291939A1 (Novartis, published 2017).
Where a chain is given by its changes, count along the chain named. Read-outs that look alike come from different tables or passages of the source.

T1: recombinant mIL-17F (SEQ ID NO: 84) (mouse, UniProt Q7TNI7 29-161)
T1 sequence: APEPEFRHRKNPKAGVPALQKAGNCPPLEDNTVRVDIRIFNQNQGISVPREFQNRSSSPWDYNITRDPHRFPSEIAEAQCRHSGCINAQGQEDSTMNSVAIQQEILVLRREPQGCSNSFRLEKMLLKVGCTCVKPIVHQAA

T2: rat IL-17A (rat, UniProt Q61453 18-150)
T2 sequence: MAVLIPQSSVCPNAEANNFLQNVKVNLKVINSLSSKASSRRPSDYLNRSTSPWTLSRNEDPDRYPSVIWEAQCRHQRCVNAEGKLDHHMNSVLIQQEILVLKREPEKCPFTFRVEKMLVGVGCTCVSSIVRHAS

T3: recombinant mIL-17A (mouse, UniProt Q62386 26-158)
T3 sequence: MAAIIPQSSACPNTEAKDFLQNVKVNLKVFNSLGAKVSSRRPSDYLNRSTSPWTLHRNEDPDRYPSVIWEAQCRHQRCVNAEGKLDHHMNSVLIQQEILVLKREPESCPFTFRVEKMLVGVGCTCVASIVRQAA

T4: recombinant huIL-17A/F heterodimer (human, UniProt Q16552 24-155; Q96PD4 31-163, limits assumed)
T4 sequence (looked up) 1: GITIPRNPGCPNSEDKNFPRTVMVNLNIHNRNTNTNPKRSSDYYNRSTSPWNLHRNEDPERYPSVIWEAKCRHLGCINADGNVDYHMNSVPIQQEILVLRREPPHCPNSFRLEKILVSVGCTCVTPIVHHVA
T4 sequence (looked up) 2: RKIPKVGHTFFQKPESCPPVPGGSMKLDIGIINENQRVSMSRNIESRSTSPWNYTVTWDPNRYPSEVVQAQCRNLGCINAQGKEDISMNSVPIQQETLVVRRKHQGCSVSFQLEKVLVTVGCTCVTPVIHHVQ

T5: recombinant huIL-17F (human, UniProt Q96PD4 31-163)
T5 sequence: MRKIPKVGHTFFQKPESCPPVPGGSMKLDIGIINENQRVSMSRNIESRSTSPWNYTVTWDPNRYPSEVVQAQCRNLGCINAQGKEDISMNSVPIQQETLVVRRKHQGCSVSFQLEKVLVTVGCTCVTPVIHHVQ

T6: recombinant huIL-17A (SEQ ID NO: 76) (human, UniProt Q16552 24-155, limits assumed)
T6 sequence: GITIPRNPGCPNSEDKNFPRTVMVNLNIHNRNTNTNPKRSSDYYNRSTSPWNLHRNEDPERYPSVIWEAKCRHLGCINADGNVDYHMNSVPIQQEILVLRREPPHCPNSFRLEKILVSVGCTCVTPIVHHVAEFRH

T7: recombinant mIL-17A/F (R&D Systems Cat#5390-IL) (mouse, UniProt Q62386 26-158; Q7TNI7 29-161, limits assumed)
T7 sequence (looked up) 1: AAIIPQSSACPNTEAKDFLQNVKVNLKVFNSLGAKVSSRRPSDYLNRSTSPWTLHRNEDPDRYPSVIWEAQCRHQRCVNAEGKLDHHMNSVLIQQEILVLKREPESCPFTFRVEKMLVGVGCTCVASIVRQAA
T7 sequence (looked up) 2: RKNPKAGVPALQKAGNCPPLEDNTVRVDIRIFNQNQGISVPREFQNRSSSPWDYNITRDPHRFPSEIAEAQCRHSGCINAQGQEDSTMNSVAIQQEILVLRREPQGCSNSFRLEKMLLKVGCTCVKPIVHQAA

T8: human IL-17A (construct not specified) (human, UniProt Q16552 24-155, limits assumed)
T8 sequence: T6 sequence

T9: cynomolgus IL-17A (cynomolgus monkey, UniProt Q16552 24-155 (human entry), limits assumed)
T9 construct: also called cynoIL-17A; cyno IL-17A
T9 chain: T4 sequence (looked up) 1 with T3A, P8S, N34S, I77V, N78K, P104R

T10: recombinant huIL-20 (Novartis) (human) (UniProt Q9NYY1)
T10 sequence (looked up): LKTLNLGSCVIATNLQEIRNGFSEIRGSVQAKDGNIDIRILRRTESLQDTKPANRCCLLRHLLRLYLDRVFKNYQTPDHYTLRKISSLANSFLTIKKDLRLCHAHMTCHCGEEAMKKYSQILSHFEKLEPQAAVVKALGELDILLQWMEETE

B1: XAB4 (antibody, human IgG1, kappa, V domains shown)
VH: EVQLVESGGDLVQPGGSLRLSCAASGFTFSSYWMSWVRQAPGKGLEWVANIKQDGSEKYYVDSVKGRFTISRDNAKNSLYLQMNSLRAEDTAVYYCARDRGSLYYWGQGTLVTVSS
VL: AIQLTQSPSSLSASVGDRVTITCRPSQGINWELAWYQQKPGKAPKLLIYDASSLEQGVPSRFSGSGSGTDFTLTISSLQPEDFATYYCQQFNSYPLTFGGGTKVEIKR
B2: XAB2 (antibody, human IgG1, kappa, V domains shown)
VH: B1 VH
VL: B1 VL with G28V, N30I, W31S, E32A, G66V, N92D
notes: full IgG
B3: XAB1 (antibody, human IgG1, kappa, V domains shown)
VH: B1 VH
VL: B1 VL with N30I, W31S, E32A, Q56N

What was measured:
[1] = target: T1, recombinant mIL-17F (SEQ ID NO: 84); assay: cell-based or functional assay
[2] = target: T2, rat IL-17A; assay: cell-based or functional assay
[3] = target: T3, recombinant mIL-17A; assay: cell-based or functional assay
[4] = target: T4, recombinant huIL-17A/F heterodimer; assay: cell-based or functional assay
[5] = target: recombinant mIL-17A/F (R&D Systems Cat#5390-IL) (mouse) (UniProt Q62386); assay: cell-based or functional assay
[6] = target: T5, recombinant huIL-17F; assay: cell-based or functional assay
[7] = target: T6, recombinant huIL-17A (SEQ ID NO: 76); assay: cell-based or functional assay
[8] = target: BSA (UniProt P02769); assay: ELISA, BSA wells, control antibody 1 µg/ml (XAB1 set)
[9] = target: BSA (UniProt P02769); assay: ELISA, BSA wells, control antibody 5 µg/ml (XAB4 set)
[10] = target: T4, recombinant huIL-17A/F heterodimer; assay: cell-based or functional assay; remark: listed apart in the source
[11] = target: T5, recombinant huIL-17F; assay: cell-based or functional assay; remark: listed apart in the source
[12] = target: T6, recombinant huIL-17A (SEQ ID NO: 76); assay: cell-based or functional assay; remark: listed apart in the source
[13] = target: T3, recombinant mIL-17A; assay: cell-based or functional assay; remark: listed apart in the source
[14] = target: T3, recombinant mIL-17A; assay: cell-based or functional assay; remark: listed apart in the source
[15] = target: T7, recombinant mIL-17A/F (R&D Systems …); assay: cell-based or functional assay
[16] = target: T4, recombinant huIL-17A/F heterodimer; assay: cell-based or functional assay; remark: listed apart in the source
[17] = target: T5, recombinant huIL-17F; assay: cell-based or functional assay; remark: listed apart in the source
[18] = target: T6, recombinant huIL-17A (SEQ ID NO: 76); assay: cell-based or functional assay; remark: listed apart in the source
[19] = target: T6, recombinant huIL-17A (SEQ ID NO: 76); assay: cell-based or functional assay; remark: listed apart in the source
[20] = target: T6, recombinant huIL-17A (SEQ ID NO: 76); assay: cell-based or functional assay; remark: listed apart in the source
[21] = target: T8, human IL-17A (construct not specified); assay: cell-based or functional assay
[22] = target: T9, cynomolgus IL-17A; assay: affinity determination (Tables 18-21)
[23] = target: T2, rat IL-17A; assay: affinity determination (Tables 18-21)
[24] = target: T10, recombinant huIL-20 (Novartis) (human); assay: ELISA, coated cytokine, antibody 10 µg/ml

Sequence of BSA (P02769 25-607 limits assumed): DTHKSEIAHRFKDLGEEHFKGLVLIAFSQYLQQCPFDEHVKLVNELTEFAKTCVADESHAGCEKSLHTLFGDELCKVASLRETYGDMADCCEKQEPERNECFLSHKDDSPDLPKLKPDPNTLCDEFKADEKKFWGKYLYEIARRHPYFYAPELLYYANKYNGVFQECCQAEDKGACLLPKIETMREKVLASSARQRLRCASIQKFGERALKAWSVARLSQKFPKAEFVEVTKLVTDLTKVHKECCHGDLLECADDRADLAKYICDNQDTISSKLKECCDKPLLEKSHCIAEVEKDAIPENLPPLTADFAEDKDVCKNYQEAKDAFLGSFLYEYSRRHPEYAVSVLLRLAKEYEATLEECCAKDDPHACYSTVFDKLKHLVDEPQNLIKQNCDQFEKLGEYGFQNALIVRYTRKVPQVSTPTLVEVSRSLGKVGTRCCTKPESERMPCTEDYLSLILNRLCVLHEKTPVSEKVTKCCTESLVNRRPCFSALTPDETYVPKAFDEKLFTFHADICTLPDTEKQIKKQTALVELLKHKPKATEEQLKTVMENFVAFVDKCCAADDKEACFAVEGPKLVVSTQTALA

Molecule | IC50, mouse KC secretion by CMT-93 cells; mIL-17F (30 nM) [1] [nM] | IC50, mouse KC secretion by CMT-93 cells; rIL-17A (1 nM) [2] [nM] | IC50, hu-GRO-alpha secretion by BJ cells; IL-17A/F (300 pM) + TNF-α (6 pM) [10] [nM] | IC50, hu-GRO-alpha secretion by BJ cells; IL-17F (10 nM) + TNF-α (6 pM) [11] [nM] | IC50, hu-GRO-alpha secretion by BJ cells; IL-17A (30 pM) + TNF-α (6 pM) [12] [nM] | IC50, KC secretion by CMT-93 cells; mIL-17A (0.15 nM) [13] [nM] | IC50, mouse KC secretion by CMT-93 cells; mIL-17A (1 nM) [14] [nM] | IC50, mouse KC secretion by CMT-93 cells; mIL-17A/F (3 nM) [15] [nM] | IC50, huIL-6 secretion by BJ cells; rhuIL-17A/F (300 pM) + rhuTNF-α (6 pM) [16] [nM] | IC50, huIL-6 secretion by BJ cells; rhuIL-17F (10 nM) + rhuTNF-α (6 pM) [17] [nM] | IC50, huGROα secretion by BJ cells; rhuIL-17A (0.5 nM) [19] [nM] | IC50, huIL-6 secretion by BJ cells; rhuIL-17A (0.5 nM) [20] [nM] | EC50, T = 0 weeks [21] [µg/mL] | EC50, T = 4 weeks at pH 8, 40° C. (forced deamidation) [21] [ng/ml] | further results
Simulect® (1.1% solution, Batch C0011; 831179) (antibody) | > 3000 | > 3000 | – | – | – | – | – | – | – | – | – | – | – | – | IC50, mouse KC secretion by CMT-93 cells; mIL-17A (1 nM) [3]: > 3000 nM; IC50, hu-GRO-alpha secretion by BJ cells; IL-17A/F (300 pM) + TNF-α (6 pM) [4]: > 3000 nM; IC50, hu-GRO-alpha secretion by BJ cells; IL-17A/F (3 nM) [4]: > 100 nM; IC50, huIL-6 secretion by BJ cells; rhuIL-17A/F (300 pM) + rhuTNF-α (6 pM) [4]: > 3000 nM; IC50, huIL-6 secretion by BJ cells; rhuIL-17A/F (3 nM) [4]: > 100 nM; IC50, mouse KC secretion by CMT-93 cells; mIL-17A/F (3 nM) [5]: > 3000 nM; IC50, hu-GRO-alpha secretion by BJ cells; IL-17F (10 nM) + TNF-α (6 pM) [6]: > 3000 nM; IC50, hu-GRO-alpha secretion by BJ cells; IL-17F (30 nM) [6]: > 1000 nM; IC50, huIL-6 secretion by BJ cells; rhuIL-17F (10 nM) + rhuTNF-α (6 pM) [6]: > 3000 nM; IC50, huIL-6 secretion by BJ cells; rhuIL-17F (30 nM) [6]: > 1000 nM; IC50, hu-GRO-alpha secretion by BJ cells; IL-17A (30 pM) + TNF-α (6 pM) [7]: > 3000 nM; IC50, hu-GRO-alpha secretion by BJ cells; IL-17A (1 nM) [7]: > 100 nM; IC50, huIL-6 secretion by BJ cells; rhuIL-17A (30 pM) + rhuTNF-α (6 pM) [7]: > 3000 nM; IC50, huIL-6 secretion by BJ cells; rhuIL-17A (1 nM) [7]: > 100 nM
Control antibody (BSA wells of Table 23; not identified) | – | – | – | – | – | – | – | – | – | – | – | – | – | – | O.D. [8]: 0.149 O.D.; O.D. [9]: 0.01 O.D.
B1 | > 10000 | 6.7 | 0.1 | > 3000 | 0.007 | 7 | 13.8 | 10.3 | 0.17 | > 3000 | 0.44 | 0.55 | 0.048 | 47 | IC50, hu-GRO-alpha secretion by BJ cells; IL-17A/F (3 nM) [10]: 1.11 nM; IC50, hu-GRO-alpha secretion by BJ cells; IL-17F (30 nM) [11]: > 3000 nM; IC50, hu-GRO-alpha secretion by BJ cells; IL-17A (1 nM) [12]: 0.35 nM; IC50, huIL-6 secretion by BJ cells; rhuIL-17A/F (3 nM) [16]: 1.68 nM; IC50, huIL-6 secretion by BJ cells; rhuIL-17F (30 nM) [17]: > 3000 nM; IC50, huIL-6 secretion by BJ cells; rhuIL-17A (1 nM) [18]: 0.63 nM
B2 | – | – | – | – | – | 20.9 | – | – | – | – | 0.4 | 0.64 | 0.045 | 47 | binding result [22]: binds; binding result [23]: binds
B3 | > 10000 | 467 | 6.22 | > 3000 | 0.72 | 128 | 539 | > 1000 | 3.83 | > 3000 | 1.39 | 4.97 | – | – | O.D. [24]: 0.335 O.D.; IC50, huIL-6 secretion by BJ cells; rhuIL-17A (30 pM) + rhuTNF-α (6 pM) [18]: 0.47 nM
